Experimental data taken from patent US9206242B2, “Application of actin-binding protein to disease associated with cell motility” (NATIONAL UNIVERSITY CORPORATION NAGOYA UNIVERSITY, priority 2005, dated 2015).
One block for each molecule: values may come before it.

Assays:
[1] = system: phosphorylation of Girdin; test: EGF-induced phosphorylation of endogenous Girdin in COS7 cells (immunoprecipitation, Western blot with anti-P-Girdin antibody); type: cell-based; conditions: EGF 50 ng/ml 15 min, PD98059 50 μM
Description: Immunoprecipitates with anti-Girdin antibody were subjected to Western blot analyses with anti-P-Girdin and anti-Girdin antibodies. Activation of Akt was monitored by Western blot analyses with anti-phospho Akt antibody.
COS7 cells were transfected with either control or Akt siRNAs, and incubated for 48 hrs. Cells were then stimulated with EGF for 30 min and the phosphorylation of Girdin was analyzed as described in FIG. 2e.
Next, whether the anti-P-Girdin Ab can detect the endogenous Girdin phosphorylated in response to external stimuli that physiologically activate endogenous Akt was given consideration to. […] Furthermore, the phosphorylation of Girdin was inhibited when cells were treated with the PI3K inhibitors LY294002 and Wortmannin, but not with the mitogen-activated protein kinase kinase 1 (MEK1) inhibitor PD98059. It has therefore been concluded that the phosphorylation of Girdin is induced by EGF in a PI3K-dependent manner. […] Moreover, Girdin phosphorylation was undetectable in the cells transfected with Akt small interfering RNA (Akt siRNA). These findings confirmed that Akt activation is necessary for Girdin phosphorylation.

[2] = Protein-lipid overlay assay (PIP-Strip), PI(4)P; type: binding; conditions: 4° C.
Description: (§1) The lipid binding of both GST-CT and GST-CT ΔPB was detected using anti-Girdin antibody, whereas that of phosphorylated GST-CT was detected by anti-P-Girdin antibody. The various lipids spotted on the membrane are indicated in (d).
(§2) GST fusion proteins were expressed in DH5 ? or BL21-CodonPlus (Stratagene) cells and purified using conventional methods. Binding of the purified GST-CT to phospholipids was examined at 4° C. using a PIP-Strip (Echelon Bioscience) according to the manufacturer's protocol. Bound GST-CT proteins were detected with either anti-Girdin or anti-phospho Girdin antibodies.

[3] = system: F-actin; test: F-actin cosedimentation assay; type: binding
Description: A fixed amount of GST-CT2 was mixed with various amounts of F-actin, followed by ultracentrifugation. Amounts of the free and bound GST-CT2 were quantified, and the percentage of bound GST-CT2 was plotted against the concentration of F-actin, and the Kd value was calculated by Scatchard analysis.
GST-CT was phosphorylated by Akt in vitro (cf. FIG. 6d, (b)) and was subjected to an actin cosedimentation assay. A fixed amount of GST-CT was phosphorylated in vitro and mixed with various amounts of F-actin, followed by ultracentrifugation. The amount of phosphorylated GST-CT bound to F-actin in the pellet fraction was monitored by Western blot analyses with anti-P-Girdin antibody.
F-actin cosedimentation assays were performed according to the manufacturer's protocol (Cytoskeleton). […] The cosedimented proteins were resolved by SDS-PAGE and detected by either Coomassie Brilliant Blue (CBB) staining or Western blot analyses using anti-GST antibody (Cell Signaling Technology) or anti-phospho Girdin Ab. For quantitative analyses, a fixed concentration of GST-Girdin CT2 (1 μM) was mixed with increasing amounts of F-actin (0-2.5 μM) in polymerization buffer and incubated at room temperature for 30 min. […] Protein bands were detected by CBB staining, and scanned and quantified using the software program WinROOF (Mitani Corp., Fukui, Japan).

[4] = Protein-lipid overlay assay (PIP-Strip), PI(3)P; type: binding; conditions: 4° C.
Description: as §1, §2

Molecule: COc1cccc(-c2cc(=O)c3ccccc3o2)c1N [PD98059]
- phosphorylation of Girdin [1]: not

- binding to PI(4)P [2]: bound to neither
- binding to PI(3)P [4]: bound to neither
B1: phosphorylated GST-CT: purified GST-CT phosphorylated by Akt in vitro (protein)
chain: IMDQYKFYDPSPPRRRGNWITLKMRKLIKSKKDINRERQKSLTLTPTRSDSSEGFLQLPHQDSQDSSSVGSNSLEDGQTLGTKKSSMVALKRLPFLRNRPKDKDKMKACYRRSMSMNDLVQSMVLAGQWTGSTENLEVPDDISTGKRRKELGAMAFSTTAINFSTVNSSAGFRSKQLVNNKDTTSFEDISPQGVSDDSSTGSRVHASRPASLDSGRTSTSNSNNNASLHEVKAGAVNNQSRPQSHSSGEFSLLHDHEAWSSSGSSPIQYLKRQTRSSPVLQHKISETLESRHHKIKTGSPGSEVVTLQQFLEESNKLTSVQIKSSSQENLLDEVMKSLSVSSDFLGKDKPVSCGLARSVSGKTPGDFYDRRTTKPEFLRPGPRKTEDTYFISSAGKPTPGTQGKIKLVKESSLSRQSKDSNPYATLPRASSVISTAEGTTRRTSIHDFLTKDSRLPISVDSPPAAADSNTTAASNVDKVQESRNSKSRSREQQSS
modifications: left off: a dimerising Fc or GST
notes: purified GST-CT phosphorylated by Akt in vitro
- affinity for F-actin after phosphorylation by Akt ([3]; GST-CT phosphorylated in vitro, detected with anti-P-Girdin antibody): did not attenuate

- Kd ([3]; GST-CT2 1 μM, F-actin 0-2.5 μM, Scatchard analysis, read-out: dissociation constant (Kd) for F-actin): 1030 nM
B2: GST-CT2: purified glutathione S-transferase (GST)-fused CT2, C-terminal half of the Girdin CT domain (protein)
chain: GEFSLLHDHEAWSSSGSSPIQYLKRQTRSSPVLQHKISETLESRHHKIKTGSPGSEVVTLQQFLEESNKLTSVQIKSSSQENLLDEVMKSLSVSSDFLGKDKPVSCGLARSVSGKTPGDFYDRRTTKPEFLRPGPRKTEDTYFISSAGKPTPGTQGKIKLVKESSLSRQSKDSNPYATLPRASSVISTAEGTTRRTSIHDFLTKDSRLPISVDSPPAAADSNTTAASNVDKVQESRNSKSRSREQQSS
modifications: left off: a dimerising Fc or GST
notes: purified glutathione S-transferase (GST)-fused CT2, C-terminal half of the Girdin CT domain
